Numbering of substitutions follows the chain as printed. Read-outs that look alike come from different tables or passages of the source.
Tests used:
[1] = Km and Vmax of purified PapM methylases, methylation 2; type: biochemical, S. pristinaespiralis; settings: for Km2 / Vm2 / Vm2/Km2 (enzyme efficiency, methylation 2): Table 7; for Vm2 (MMPAPA) / Km2 (MMPAPA): purified enzyme, 2 mM SAM; for Km2 (MMPAPA): substrate 0.1 to 60 mM
Method: (§1) The enzyme fractions to be assayed (1 to 20 units) are incubated for 30 min at 27° C. in a total volume of 200 μl of 50 mM bis-tris-propane buffer, pH 6.8, containing SAM (200 μM) the methyl group of which is radioactively labeled with the carbon 14 isotope (2 Ci/mol), in the presence of 4-amino-L-phenylalanine (1 mM) for assaying methylation 1, or of 4-methylamino-L-alanine (2.5 mM) for assaying methylation 2.
(§2) The reaction is stopped by adding 16 μl of 37% hydrochloric acid and then 20 μl of sodium heptanesulfonate at 240 g/l. After centrifugation, 150 μl of supernatant are injected into the HPLC system in the following gradient mode: • Mobile phase: Eluent A=1.2 g of heptanesulfonate+2.5 ml of glacial acetic acid+water (qs 1 000 ml). Eluent B=1.2 g of sodium heptanesulfonate+2.5 ml of glacial acetic acid+300 ml of acetonitrile+water (qs 1 000 ml). The gradient is produced in the following way: at t=0, 30% of eluent B; t=16 (min), 30% of eluent B; t=17 (min), 100% of eluent B; t=20 min, 100% of eluent B; t=21 min, 30% of eluent B; t=25 (min), 30% of eluent B. • Stationary phase: Nucleosil® C 18 5 μm×4.6 mm column (Macherey-Nagel)
(§3) On leaving the column, the substrates and products of the enzyme reaction are quantified by absorption at 254 nm. This detection is coupled to an on-line radiochemical detection using a Berthold LB506 detector equipped with a solid scintillation cell of the GT400-U4 type. This makes it possible to specifically follow the incorporation of radioactive methyl groups into the reaction products.
(§4) The unit of enzyme activity for methylation 1 (and also for methylation 2) is defined as the amount of enzyme required to incorporate 1 nmol of methyl group into 4-amino-L-phenylalanine (or into 4-methylamino-L-phenylalanine).
(§5) The conditions for assaying the methylation activity are identical to those described in example 7-1, with the exception of the 2 mM concentration of SAM, the methyl group of which is radioactively labeled with the carbon 14 isotope (2 Ci/mol). Concentration ranges varying from 0.1 to 60 mM for each of the substrates 4-amino-L-phenylalanine for methylation 1 and 4-methylamino-L-phenylalanine for methylation 2 are prepared. For each concentration of each substrate, the reaction rate is measured and expressed in nmol converted per hour and per mg of proteins.
(§6) The values of the kinetics constants are deduced from the Michaelis-Menten curves plotted using the Enzfiter software.

[2] = Ratios of kinetic constants and enzyme efficiencies, methylation 1 / methylation 2; type: biochemical, S. pristinaespiralis; settings: for Ratio Km2/Km1 / Ratio Vm1/Vm2: Table 5; for Vm1 · Km2 / Vm2 · Km1 (ratio of enzyme efficiencies): Table 7
Method: as §5, §6
For each mutant form of the enzyme, the enzyme efficiency of each methylation reaction (methylation 1 and methylation 2) was determined. This efficiency is defined by the ratio Vm1/Km1 (methylation 1) or Vm2/Km2 (methylation 2).
Then, for each form, the ratio of the enzyme efficiencies (methylation reaction 1/methylation reaction 2) was determined. This ratio is equal to Vm1.Km2/Vm2.Km1.

[3] = Competition assay between the two substrates; type: biochemical, S. pristinaespiralis; settings: both substrates present: 1 mM 4-amino-L-phenylalanine, 2 mM 4-methylamino-L-phenylalanine, 2 mM SAM
Method: The ratio of the rates of conversion of the two competitive substrates is given by the formula: V1/V2=(Kcat1/Km1)[S1]/(Kcat2/Km2)[S2]
The amount of substrate and of enzyme brought into play is thus avoided by taking care not to convert not more than 2% of each of the substrates.
Using the same conditions for assaying the methylation activity as those described in example 7-1, with the exception of the concentration of SAM, which is 2 mM, and the methyl group of which is radioactively labeled with the carbon 14 isotope (2.5 Ci/mol), and with the simultaneous presence of the two substrates at the concentrations, for 4-amino-L-phenylalanine, of 1 mM and, for 4-methylamino-L-phenylalanine, of 2 mM, the rate of each of the reactions could thus be determined.
The assays were carried out simultaneously on the mutants described in examples 4 to 6, using the same substrate solutions.

[4] = Enzymatic screening: simultaneous assay of the two methylation activities of PapM (ratio r); type: biochemical, S. pristinaespiralis; settings: for Ratio (r redetermined): 7 sequenced clones, experiment in which wild-type ratio was 0.40
Source text: The ratio of the respective rates V1 and V2 of methylation of L-PAPA and of L-MMPAPA is dependent on the kinetic parameters of PapM (Km1 and Vmax1 for L-PAPA, Km2 and Vmax2 for L-MMPAPA), and is also dependent on the respective concentrations S1 and S2 of L-PAPA and of L-MMPAPA, according to the formula: V1/V2=(Vmax1//Km1)[S1]/(Vmax2/Km2)[S2]
Simultaneous measurement of the two rates of methylation V1 and V2 at fixed concentrations of S1 and S2 makes it possible to determine the ratio of the kinetic constants of PapM for L-PAPA and L-MMPAPA. This ratio is independent of the amount of PapM used in the assay. When the selectivity of the mutated PapM enzyme increases for L-PAPA, the ratio V1/V2 should increase and, conversely, this ratio should decrease when the mutated PapM enzyme preferentially methylates L-MMPAPA.
Finally, in order to avoid small variations in Km and to, on the contrary, promote either large variations in Km or modifications in the Vmax values, the concentrations of L-PAPA and L-MMPAPA are fixed at approximately 6 times the Km in order to be under conditions of saturation. Under such conditions, with the wild-type PapM enzyme, the rate of methylation 1 and the rate of methylation 2 are virtually equal.
The simultaneous assaying of the two methylation activities of PapM is described in example 7.1. This assaying of the methylase activities of PapM is carried out in the presence of 1.5 mM L-PAPA, 3 mM L-MMPAPA and […].
The 96-well plates of the library of E. coli clones producing the mutated PapM enzymes, prepared as described in example 3, are thawed at 23° C. Next, 25 μl of mixture A are added to the 200 μl of the culture on LB medium contained in each well. Mixture A is obtained by adding successively (1) 3 ml of 50 mM Bis-Tris-Propane buffer, pH 10, in which have been dissolved 12 mg of L-PAPA, and 71 mg of (DL)-MMPAPA in dihydrochloride form and prepared as described in WO 96/01901-A1, (2) 0.7 ml of 4 mM SAM in water, (3) 0.7 ml of [^14C-Me]-SAM at 25 μCi/ml and 60 mCi/mmol (AMERSHAM), (4) 0.6 ml of 100 mM Bis-Tris-Propane buffer, pH 6.8, and (5) 56 mg of the disodium salt of EDTA. The amounts are given for the preparation of a 5 ml volume of mixture A. The plate is then sealed with an adhesive film, and then incubated at 27° C. for 2 hours. The reaction is stopped with 40 μl of a stop solution. The stop solution (for a volume of 4 ml) is obtained by mixing 2.2 ml of a 24 mg/ml sodium heptanesulfonate solution in water with 1.8 ml of concentrated hydrochloric acid. After centrifugation of the plates at 3 000 g for 5 min, approximately 100 μl of the supernatant of each well are analyzed by HPLC in the system described in example 7.1.
For each well, the respective areas A1 and A2 of the MMPAPA and DMPAPA peaks derived from recording the radiochemical detection are integrated. A ratio r is then calculated in the following way: r=A1/(A1+A2) In the case of the wild-type PapM methylase, r=0.50±0.05.

[5] = Blanc et al., 1997, cited from earlier work
[6] = Blanc et al., 1997, cited from earlier work; remark: listed apart in the source
[7] = Km and Vmax of purified PapM methylases, methylation 1; type: biochemical, S. pristinaespiralis; settings: for Km1 / Vm1 / Vm1/Km1 (enzyme efficiency, methylation 1): Table 7; for Vm1 (PAPA) / Km1 (PAPA): purified enzyme, 2 mM SAM; for Km1 (PAPA): substrate 0.1 to 60 mM
Method: as §1, §2, §3, §4, §5, §6

B1: 4-amino-L-phenylalanine (phenyl N)-methyltransferase (protein, UniProt P72542 1-292, looked up)
4-amino-L-phenylalanine/4-meth …: MTAAAPTLAQALDEATGQLTGAGITADAARADTRLLAAHACQVAPGDLDTCLAGPVPPRFWHYVRRRLTREPAERIVGHAYFMGHRFDLAPGVFVPKPETEEITRDAIARLEALVRRGTTAPLVVDLCAGPGTMAVTLARHVPAARVLGIELSQAAARAARRNARGTGARIVQGDARDAFPELSGTVDLVVTNPPYIPIGLRTSAPEVLEHDPPLALWAGEEGLGMIRAMERTAARLLAPGGVLLLEHGSYQLASVPALFRATGRWSHASSRPTCNDGCLTAVRNHTCAPPA
Km2 [1]: 0.55 | Vm2 [1]: 114 000 | Vm2/Km2 (enzyme efficiency, methylation 2) [1]: 207 270 | Vm2 (MMPAPA) [1]: 114 000 nmol/h/mg | Km2 (MMPAPA) [1]: 0.55 mM | ratio of the enzyme efficiencies (methylation reaction 1/methylation reaction 2), Vm1.Km2/Vm2.Km1 [2]: 1.1 | Ratio Km2/Km1 [2]: 1.1 | Ratio Vm1/Vm2 [2]: 0.99 | Vm1 · Km2 / Vm2 · Km1 (ratio of enzyme efficiencies) [2]: 1.08 | first methylation reaction relative to the second (selectivity) [3]: catalyzes the two reactions in a similar manner | Ratio (r redetermined) [4]: 0.40 | ratio of the two methylation activities (r) ([4]; after recloning of papM genes into pMTL23, E. coli DH5α, same experiment as wild-type): 0.40 | ratio r=A1/(A1+A2) of MMPAPA and DMPAPA peak areas ([4]; screening of E. coli cultures, 1.5 mM L-PAPA, 3 mM L-MMPAPA): 0.50±0.05 | maximum velocity (Vmax) for L-PAPA [5]: 55 μmol per hour and per mg of PapM | Km ([5]; read-out: Michaelis constant (Km) for L-PAPA): 240 µM | maximum velocity (Vmax) for L-MMPAPA [6]: 71 μmol per hour and per mg of PapM | Km ([6]; read-out: Michaelis constant (Km) for L-MMPAPA): 530 µM | Km1 [7]: 0.5 | Vm1 [7]: 112 600 | Vm1/Km1 (enzyme efficiency, methylation 1) [7]: 225 200 | Vm1 (PAPA) [7]: 112 600 nmol/h/mg | Km1 (PAPA) [7]: 0.5 mM

B2: Mutant 74D4: PapM variant clone, Gly249 > Ser (same substitution as mutant 49) (protein, UniProt P72542 1-292, looked up, variant G249S)
4-amino-L-phenylalanine/4-meth …: B1 4-amino-L-phenylalanine/4-meth … with G249S
Ratio (r redetermined) [4]: 0.63

B3: Mutant 45: PapM variant Thr274 > Ile (protein, UniProt P72542 1-292, looked up, variant T274I)
4-amino-L-phenylalanine/4-meth …: B1 4-amino-L-phenylalanine/4-meth … with T274I
Ratio (r redetermined) [4]: 0.52

B4: Mutant 74D5: PapM variant clone, Met226 > Ile (same substitution as mutant 69) (protein, UniProt P72542 1-292, looked up, variant M226I)
4-amino-L-phenylalanine/4-meth …: B1 4-amino-L-phenylalanine/4-meth … with M226I
Ratio (r redetermined) [4]: 0.52

B5: Mutant 69: PapM variant Met226 > Ile (protein, UniProt P72542 1-292, looked up, variant M226I)
4-amino-L-phenylalanine/4-meth …: B1 4-amino-L-phenylalanine/4-meth … with M226I
Ratio (r redetermined) [4]: 0.51

B6: Mutant 52: PapM variant Gly249 > Asp (protein, UniProt P72542 1-292, looked up, variant G249D)
4-amino-L-phenylalanine/4-meth …: B1 4-amino-L-phenylalanine/4-meth … with G249D
Ratio (r redetermined) [4]: 0.66

B7: Mutant 49/66: doubly mutated PapM, Thr192 > Ile and Gly249 > Ser, plasmids pVRC718 / pVRC721 (protein, UniProt P72542 1-292, looked up, variant T192I G249S)
4-amino-L-phenylalanine/4-meth …: B1 4-amino-L-phenylalanine/4-meth … with T192I, G249S
Km2 [1]: 22 | Vm2 [1]: 9 100 | Vm2/Km2 (enzyme efficiency, methylation 2) [1]: 410 | Vm2 (MMPAPA) [1]: 9 100 nmol/h/mg | Km2 (MMPAPA) [1]: 22 mM | Ratio Km2/Km1 [2]: 2.5 | Ratio Vm1/Vm2 [2]: 3.1 | Vm1 · Km2 / Vm2 · Km1 (ratio of enzyme efficiencies) [2]: 7.58 | first methylation reaction relative to the second (selectivity) [3]: 7 times | Km1 [7]: 9 | Vm1 [7]: 28 000 | Vm1/Km1 (enzyme efficiency, methylation 1) [7]: 3 110 | Vm1 (PAPA) [7]: 28 000 nmol/h/mg | Km1 (PAPA) [7]: 9 mM

From patent publication US7604970B2, “Variants of the PapM polypeptide of bacteria of the Streptomyces genus” (Aventis Pharma S.A., priority 2002, dated 2009)
